Results on one substance are retold here after patent publication US7534431.

Where only a bound is given, the exact number is not on record here.

The target in the experiment is carcinoembryonic antigen (CEA) (UniProt P06731). Nature of the experiment: size-exclusion HPLC shift of radioiodinated bispecific conjugate in the presence of excess CEA.
Sequence of UniProt P06731 (P06731 35-685 limits assumed): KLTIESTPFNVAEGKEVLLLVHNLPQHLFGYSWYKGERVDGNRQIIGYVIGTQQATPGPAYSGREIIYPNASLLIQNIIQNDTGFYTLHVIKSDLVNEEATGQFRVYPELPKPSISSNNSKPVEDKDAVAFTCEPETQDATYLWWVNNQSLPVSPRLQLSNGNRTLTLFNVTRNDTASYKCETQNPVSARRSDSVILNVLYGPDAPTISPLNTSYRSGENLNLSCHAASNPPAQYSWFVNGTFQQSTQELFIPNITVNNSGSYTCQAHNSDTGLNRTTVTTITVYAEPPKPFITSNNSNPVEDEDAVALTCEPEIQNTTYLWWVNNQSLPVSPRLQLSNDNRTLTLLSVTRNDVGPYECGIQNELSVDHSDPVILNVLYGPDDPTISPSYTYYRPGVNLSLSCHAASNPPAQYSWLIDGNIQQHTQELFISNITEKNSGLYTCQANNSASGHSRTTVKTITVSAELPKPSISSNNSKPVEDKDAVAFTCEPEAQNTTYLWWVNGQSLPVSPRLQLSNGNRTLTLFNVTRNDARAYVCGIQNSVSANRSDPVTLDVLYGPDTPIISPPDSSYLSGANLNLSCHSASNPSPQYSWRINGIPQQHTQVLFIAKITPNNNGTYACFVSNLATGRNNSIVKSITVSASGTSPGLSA

Take “hMN-14×734 bispecific antibody (Fab' of humanized anti-CEA hMN-14 coupled to Fab' of murine anti-indium-DTPA 734)”: the immunoreactivity (fraction of radioiodinated sample shifted by excess CEA) is above 85%.
